{
  "source": "paper PMC2868043",
  "about": "“The Yeast Cell Fusion Protein Prm1p Requires Covalent Dimerization to Promote Membrane Fusion” (PLoS ONE, 2010)",
  "key": {"[1]": {"molecular_target": "the molecule itself", "test": "non-reducing SDS-PAGE and Western blot; whole cell lysate, reducing agent omitted from the sample buffer; cells induced with 10 µg/ml α-factor for 90 min (GFP alleles, anti-GFP blot) or with galactose (HA-PRM1, anti-HA blot); shows only SDS-resistant covalent dimers"}, "[2]": {"molecular_target": "the molecule itself", "test": "non-reducing SDS-PAGE + affinity purification with mass spectrometry; Prm1p purified from mating cells under native conditions by α-myc immunoprecipitation, eluted with 2% SDS, 10% bis-Tris gel, colloidal blue staining; unreduced sample analysed by mass spectrometry (data not shown)"}},
  "data": [
    {"protein": "Prm1-GFP (natural protein, S. cerevisiae, UniProt P53835 1-661, looked up, Prm1p, mating-specific multipass membrane protein of S. cerevisiae; monomer 73 kD; Glycosylated (sugar modifications); Forms a disulfide-linked homodimer; also called Prm1p; source: S. cerevisiae (W303 derivatives), PRM1 promoter, induced with α-factor or by mating; in whole cell lysate or Triton X-100 solubilised membranes; not shown: GFP, C-terminal, kept) MSGFKCYLQLGDRLSQIWLNKYTLVLLLAMLKLLFFSKSIQHAIEVSETYILSNCYSIDSLYSKMTDNTPHYLGIMGNYLIEKGMEETVKATLETLSLIVYASEGLVNFAIDLYLGTYACLIVSAVDGTVDVATNITEKLISLVNDTVSSVANELDTGLNDISKIINKVIKAASKVENFFTGDDDDSNMTSSIKSVNLTISALHNLYIPSSINDKLEELSAKTPDFAQVKNTTKNLISVPFNEVRKNIKAVNASNIIGDTSVLYVPPVSLDNSTGICSSNQSEILAFYSILGHVLKIATVVCITVLICFAVGAMAPVAWNEIKLWRRLCGMRDHYMLSRQDSYTSFSSENTHELKDPFRDPPIQNGQYDVIASYQQCFQTWNTRIAGWMTNLVTFGKSPENIDPKTKQKIEWVVAYMTSERALCVLGIGLLGILVCICQFVMIALLKHKISHSLTSNDGDGVQNLLKSSTAVDIENQMSLWSVQTNKYINTTETNINQEVFGWINTTTLSVNNTVATMISDIDTTLADVFNGTLLYNPMKTVVGCAIENKLYTIEKAMTWIHDKAQLHIPRINGTQIKQALAKQTDNSTIPTASSTSAATENLLENLVNDMREGLLKILRAYHRITLGELTVALVILAVWLVQLPIALVILRLRLRKATFD", "values": [
      {"measurement": "stoichiometry N", "setting": "[1]", "value": 2}
    ]},
    {"protein": "Prm1-myc (natural protein, S. cerevisiae, UniProt P53835 1-661, looked up, Prm1p, mating-specific multipass membrane protein of S. cerevisiae; Made by replacing the GFP of the PRM1-GFP plasmid with the tag of a PRM1-myc strain, so the tag is probably C-terminal; also called Prm1p; source: S. cerevisiae (W303 derivatives), PRM1 promoter, mating cells; in Triton X-100 solubilised membranes, or purified by α-myc immunoprecipitation) MSGFKCYLQLGDRLSQIWLNKYTLVLLLAMLKLLFFSKSIQHAIEVSETYILSNCYSIDSLYSKMTDNTPHYLGIMGNYLIEKGMEETVKATLETLSLIVYASEGLVNFAIDLYLGTYACLIVSAVDGTVDVATNITEKLISLVNDTVSSVANELDTGLNDISKIINKVIKAASKVENFFTGDDDDSNMTSSIKSVNLTISALHNLYIPSSINDKLEELSAKTPDFAQVKNTTKNLISVPFNEVRKNIKAVNASNIIGDTSVLYVPPVSLDNSTGICSSNQSEILAFYSILGHVLKIATVVCITVLICFAVGAMAPVAWNEIKLWRRLCGMRDHYMLSRQDSYTSFSSENTHELKDPFRDPPIQNGQYDVIASYQQCFQTWNTRIAGWMTNLVTFGKSPENIDPKTKQKIEWVVAYMTSERALCVLGIGLLGILVCICQFVMIALLKHKISHSLTSNDGDGVQNLLKSSTAVDIENQMSLWSVQTNKYINTTETNINQEVFGWINTTTLSVNNTVATMISDIDTTLADVFNGTLLYNPMKTVVGCAIENKLYTIEKAMTWIHDKAQLHIPRINGTQIKQALAKQTDNSTIPTASSTSAATENLLENLVNDMREGLLKILRAYHRITLGELTVALVILAVWLVQLPIALVILRLRLRKATFD", "values": [
      {"measurement": "stoichiometry N", "setting": "[2]", "value": 2}
    ]},
    {"protein": "HA-Prm1p (natural protein, S. cerevisiae, UniProt P53835 1-661, looked up, Prm1p, S. cerevisiae, under control of the GAL1 promoter; also called GALPRO-HA-PRM1; source: S. cerevisiae (W303 derivative), genomic GAL1 promoter fusion, galactose induced; in whole cell lysate) MSGFKCYLQLGDRLSQIWLNKYTLVLLLAMLKLLFFSKSIQHAIEVSETYILSNCYSIDSLYSKMTDNTPHYLGIMGNYLIEKGMEETVKATLETLSLIVYASEGLVNFAIDLYLGTYACLIVSAVDGTVDVATNITEKLISLVNDTVSSVANELDTGLNDISKIINKVIKAASKVENFFTGDDDDSNMTSSIKSVNLTISALHNLYIPSSINDKLEELSAKTPDFAQVKNTTKNLISVPFNEVRKNIKAVNASNIIGDTSVLYVPPVSLDNSTGICSSNQSEILAFYSILGHVLKIATVVCITVLICFAVGAMAPVAWNEIKLWRRLCGMRDHYMLSRQDSYTSFSSENTHELKDPFRDPPIQNGQYDVIASYQQCFQTWNTRIAGWMTNLVTFGKSPENIDPKTKQKIEWVVAYMTSERALCVLGIGLLGILVCICQFVMIALLKHKISHSLTSNDGDGVQNLLKSSTAVDIENQMSLWSVQTNKYINTTETNINQEVFGWINTTTLSVNNTVATMISDIDTTLADVFNGTLLYNPMKTVVGCAIENKLYTIEKAMTWIHDKAQLHIPRINGTQIKQALAKQTDNSTIPTASSTSAATENLLENLVNDMREGLLKILRAYHRITLGELTVALVILAVWLVQLPIALVILRLRLRKATFD", "values": [
      {"measurement": "stoichiometry N", "setting": "[1]", "value": 2}
    ]}
  ]
}
